This series deals with the molecule itself. Put plainly: cryo-EM structure.

Broadly, the stoichiometry N is the number of molecules, sites or subunits per partner or assembly.

B1: protein VC1979 of Vibrio cholerae (dNTPase) (enzyme)
chain: QVSLNPEWLARNNDEHKIRRNDHRSPFQRDRARILHSAAFRRLQAKTQVHGTSLNDFHRTRLTHSLEAAQIGTGIVAQIKLKQPEFRELLPSDSLIDSLCLAHDIGHPPYGHGGEIALNYMMRDHGGFEGNAQTFRIVTSLEPYTEHHGMNLSRRTLLGLLKYPALLSATRAAIPPPAVAHQRQLKAKDWSPAKGIYDCDLASLDWVLEPLCESDRELLGQMRAEPSSPKEHRKTRFKSLDCSIMELADDIAYGVHDLEDAIVLGMVTRAQWQEAAAAQLAECGDPWFEEHIAELSEMLFSGKHYVRKDAIGGIVNALLTSISVKPVEAPFHNELLAFNAYIEPHMGNALEVLKHFVSQYVIQIPQVQRFEYKGQQLIMDLFEALSADPERLLPQATGEKWRKAQEQDEGMRVICDYIAAMTDAYAQRLHQQLFSAQSHY
For B1, the “stoichiometry N” value was 6.

These data come from publication PMC8009872, “Beam image-shift accelerated data acquisition for near-atomic resolution single-particle cryo-electron tomography” (Nature Communications, 2021).
